Source: paper PMC7060540
pKd: −log10 of the molar value.

Biological target: HIS-CbuHMGA (Catalpa bungei)
Assay: BLI; Octet QK (Forte-Bio); GST-CbuSPL9 at 2381, 1191, 595.3, 297.6 and 148.8 nM on HIS-CbuHMGA; which protein was immobilised, buffer and temperature not told

pKd: 6.51
Substance: GST-CbuSPL9 (natural protein)
